Laboratory results published in patent publication US6451976B1, “Bi-or multifunctional molecules based on a dendroaspin scaffold” (Trigen Limited, priority 1997, dated 2002).

How the values were obtained:
thrombin = thrombin (Homo sapiens, UniProt P00734); experiment: Thrombin-induced fibrinogen clotting time; type: biochemical; conditions: summary of FIG. 3D
Method: Thrombin-induced fibrinogen clotting time: Thrombin-induced fibrinogen clotting time was determined using an Amelung KC-10 instrument as follows. 50 μl of thrombin (3.3 μg/ml) in 50 mM Tris-HCL, pH7.5, containing 150 mM NaCl and 5 mM CaCl2 was mixed with 10 μl of various concentrations of both modified (Den-TM) and wild type dendroaspin (as a control for comparison). After a 2 min incubation at 37° C., 100 μl of fibrinogen (160 μg/ml) in the same buffer was added to determine the clotting time.
Amidolytic activity of thrombin and clotting of fibrinogen: The amidolytic activity of α-thrombin was performed using the chromogenic substrate S-2238 (Chromogenix) and α-thrombin at a final concentration of 0.06 unit/ml. Thrombin releases p-nitroaniline from the substrate and the rate of this reaction was monitored in microtiter plates at 405 nm using an automated spectrophotometer (Autoreader III, Ortho Diagnostic Systems). The inhibitory effect of Den-HR on thrombin cleavage of the chromogenic substrate was measured at final concentration between nM-mM. […] The time to observe the start of fibrinogen clotting (thrombin time) was measured using an automated coagulometer at 37° C. The effect of mutants on fibrinogen clotting by α-thrombin was determined by substituting the HEPES buffer in the first mixture with mutants at a range of concentrations.

washed platelets = experiment: Thrombin-induced platelet aggregation; type: cell-based, human; conditions: summary of FIG. 3D
Method: (§1) Platelet aggregation: Platelet aggregation was measured by the increase in light transmission as described in Lu et al (1994) Biochem J 304: 929-936 and used to identify RGD function. Briefly, platelet rich plasma (PRP) was prepared from citrated human blood from healthy individuals by centrifugation at 200 g for 15 min. Platelets were prepared from PRP by centrifugation at 1200 g for 15 min. The pellets were washed and resuspended in adhesion/aggregation buffer (145 mM NaCl, 5 mM Kcl, 1 mM MgCl2, 2 mM CaCl2, 10 mM glucose, 3.5 mg/ml BSA and 10 mM HEPES, pH 7.35) and adjusted to a count of 3×10^8/ml. Platelet aggregation (320 μl incubations) was induced with 10 μM ADP in the presence of 1.67 mg/ml fibrinogen and measured using a Payton Dual-Aggregometer linked to a chart recorder.
Thrombin-induced platelet aggregation: Thrombin-induced platelet aggregation in washed platelets for both wild-type and mutant dendroaspins were determined as described in Example 3 above, except thrombin was used as an agonist.

platelets = experiment: ADP-induced platelet aggregation (RGD function); type: cell-based, human; conditions: summary of FIG. 3D
Method: as §1

[1] = test system: binding of platelets to immobilized fibronectin; conditions: Lu X et al (1994); cited from earlier work
[2] = test system: platelet adhesion to fibrinogen; conditions: Lu X et al (1994); cited from earlier work

Row | Molecule | thrombin clotting time (thrombin) | inhibition of thrombin-induced platelet aggregation (washed platelets) | inhibition of ADP-induced platelet aggregation (platelets) | inhibition of binding of platelets to immobilized fibronectin [1] | inhibition of platelet adhesion to fibrinogen [2]
1 | SEQ ID NO:46: dendroaspin carrying the thrombomodulin-binding sequence of the B-chain of human thrombin; bifunctional molecule (RICFTPRGDMPGPYPGPCQEDSCYKNIWTFDNIIRRGPGPTWTANVGKGQPS) | delay | inhibits | inhibits | – | –
2 | kistrin | – | – | – | poor antagonists | potent inhibitors
3 | SEQ ID NO:43: modified dendroaspin with hirudin domain grafted into loops I and II (protein) RICFTPRGDMPGPYPGPCQEDSCYKNIWTFDNIIRRGCGCFTPRGDMPGPYFPRPQSHNDGDFEEIPEEYLQ | delays | inhibits | inhibits | – | –
